Assay results from patent US20130195859.

System: plasma derived alpha-1 antitrypsin (AAT)

## recombinant active caspase-1
  caspase-1 activity (in arbitrary units), colorimetric substrate, in vitro with recombinant active caspase-1: AAT has a direct inhibitory effect on caspase-1 activity in vitro
